From US20160272683A1 (Novo Nordisk, published 2016) come the findings set out here.

Numbered stars: 1 amine (or outer) side, 2 acyl side, 3 side chain; on linkers, the order of the positions; unused ones are H or OH. Square brackets hold non-standard residues; d marks the D form. * marks the point of attachment. C20 diacid = O=C(O)CCCCCCCCCCCCCCCCCCC(=O)*; γGlu = O=C(O)[C@H](CCC(=O)[*:2])N[*:1]; AEEA = NCCOCCOCC(=O)O

The labels stand for the following.
T1: human calcitonin receptor (human, UniProt P30988 25-474)
T1 construct: whole, on cells; Assay VII: membranes on SPA beads; also called hCT-R; hCTR
T1 sequence (looked up): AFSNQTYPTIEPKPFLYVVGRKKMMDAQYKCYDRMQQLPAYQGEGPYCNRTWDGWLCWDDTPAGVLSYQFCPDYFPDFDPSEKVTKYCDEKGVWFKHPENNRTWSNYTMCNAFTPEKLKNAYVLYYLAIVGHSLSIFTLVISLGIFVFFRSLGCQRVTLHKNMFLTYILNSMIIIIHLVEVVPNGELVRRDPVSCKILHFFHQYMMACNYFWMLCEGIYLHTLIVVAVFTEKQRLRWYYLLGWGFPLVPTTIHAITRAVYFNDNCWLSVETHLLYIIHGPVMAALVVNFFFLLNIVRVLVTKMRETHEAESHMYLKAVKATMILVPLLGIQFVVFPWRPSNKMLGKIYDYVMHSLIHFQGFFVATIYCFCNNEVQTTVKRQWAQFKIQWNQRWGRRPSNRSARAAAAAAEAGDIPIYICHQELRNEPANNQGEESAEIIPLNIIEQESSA

T2: human amylin receptor (amylin 3(a) receptor: human calcitonin receptor with RAMP-3) (human, UniProt P30988 25-474; O60896 24-148, limits assumed)
T2 construct: whole, on cells; Assay V: membranes of the Amylin 3(a)/CRE-luc BHK cells on SPA beads; also called hAmylin-R
T2 sequence (looked up) 1: T1 sequence (looked up)
T2 sequence (looked up) 2: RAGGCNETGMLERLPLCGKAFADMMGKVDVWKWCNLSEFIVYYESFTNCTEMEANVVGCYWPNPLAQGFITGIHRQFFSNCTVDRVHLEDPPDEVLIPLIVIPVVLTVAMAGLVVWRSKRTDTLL

B1: [N-terminal(C20 diacid-gGlu-OEG), des1, 30S, 31G]mimylin (peptide)
peptide: {C20 diacid-γGlu-AEEA}-ASELSTAALGRLSAELHELATLPRTETGSGSP-NH2
notes: mimylin derivative; des1 = residue 1 deleted; also called Ex. #41; 41
B2: [N-terminal(C20 diacid-gGlu), des1, 9S, 21S, 23Y, 30S, 31G, 33Y]mimylin (peptide)
peptide: {C20 diacid-γGlu}-ASELSTASLGRLSAELHELSTYPRTETGSGSY-NH2
SMILES: CC(C)C[C@H](NC(=O)[C@H](CO)NC(=O)[C@H](C)NC(=O)[C@@H](NC(=O)[C@H](CO)NC(=O)[C@H](CC(C)C)NC(=O)[C@H](CCC(=O)O)NC(=O)[C@H](CO)NC(=O)[C@H](C)NC(=O)CC[C@H](NC(=O)CCCCCCCCCCCCCCCCCCC(=O)O)C(=O)O)[C@@H](C)O)C(=O)NCC(=O)N[C@@H](CCCNC(=N)N)C(=O)N[C@@H](CC(C)C)C(=O)N[C@@H](CO)C(=O)N[C@@H](C)C(=O)N[C@@H](CCC(=O)O)C(=O)N[C@@H](CC(C)C)C(=O)N[C@@H](Cc1c[nH]cn1)C(=O)N[C@@H](CCC(=O)O)C(=O)N[C@@H](CC(C)C)C(=O)N[C@@H](CO)C(=O)N[C@H](C(=O)N[C@@H](Cc1ccc(O)cc1)C(=O)N1CCC[C@H]1C(=O)N[C@@H](CCCNC(=N)N)C(=O)N[C@H](C(=O)N[C@@H](CCC(=O)O)C(=O)N[C@H](C(=O)NCC(=O)N[C@@H](CO)C(=O)NCC(=O)N[C@@H](CO)C(=O)N[C@@H](Cc1ccc(O)cc1)C(N)=O)[C@@H](C)O)[C@@H](C)O)[C@@H](C)O
notes: mimylin derivative; des1 = residue 1 deleted; also called Ex. #100; 100
B3: [N-terminal(C20 diacid-gGlu), des1, 12H, 30S, 31G]mimylin (peptide)
peptide: {C20 diacid-γGlu}-ASELSTAALGHLSAELHELATLPRTETGSGSP-NH2
notes: mimylin derivative; also called Ex. #72; 72
B4: [N-terminal(C20 diacid-gGlu), des1, 23Y, 30S, 31G]mimylin (peptide)
peptide: {C20 diacid-γGlu}-ASELSTAALGRLSAELHELATYPRTETGSGSP-NH2
SMILES: CC(C)C[C@H](NC(=O)[C@H](C)NC(=O)[C@H](C)NC(=O)[C@@H](NC(=O)[C@H](CO)NC(=O)[C@H](CC(C)C)NC(=O)[C@H](CCC(=O)O)NC(=O)[C@H](CO)NC(=O)[C@H](C)NC(=O)CC[C@H](NC(=O)CCCCCCCCCCCCCCCCCCC(=O)O)C(=O)O)[C@@H](C)O)C(=O)NCC(=O)N[C@@H](CCCNC(=N)N)C(=O)N[C@@H](CC(C)C)C(=O)N[C@@H](CO)C(=O)N[C@@H](C)C(=O)N[C@@H](CCC(=O)O)C(=O)N[C@@H](CC(C)C)C(=O)N[C@@H](Cc1c[nH]cn1)C(=O)N[C@@H](CCC(=O)O)C(=O)N[C@@H](CC(C)C)C(=O)N[C@@H](C)C(=O)N[C@H](C(=O)N[C@@H](Cc1ccc(O)cc1)C(=O)N1CCC[C@H]1C(=O)N[C@@H](CCCNC(=N)N)C(=O)N[C@H](C(=O)N[C@@H](CCC(=O)O)C(=O)N[C@H](C(=O)NCC(=O)N[C@@H](CO)C(=O)NCC(=O)N[C@@H](CO)C(=O)N1CCC[C@H]1C(N)=O)[C@@H](C)O)[C@@H](C)O)[C@@H](C)O
notes: mimylin derivative; des1 = residue 1 deleted; also called Ex. #56; 56
B5: [N-terminal(C20 diacid-gGlu), des1, 23Y, 30S, 31G, 32A]mimylin (peptide)
peptide: {C20 diacid-γGlu}-ASELSTAALGRLSAELHELATYPRTETGSGAP-NH2
SMILES: CC(C)C[C@H](NC(=O)[C@H](C)NC(=O)[C@H](C)NC(=O)[C@@H](NC(=O)[C@H](CO)NC(=O)[C@H](CC(C)C)NC(=O)[C@H](CCC(=O)O)NC(=O)[C@H](CO)NC(=O)[C@H](C)NC(=O)CC[C@H](NC(=O)CCCCCCCCCCCCCCCCCCC(=O)O)C(=O)O)[C@@H](C)O)C(=O)NCC(=O)N[C@@H](CCCNC(=N)N)C(=O)N[C@@H](CC(C)C)C(=O)N[C@@H](CO)C(=O)N[C@@H](C)C(=O)N[C@@H](CCC(=O)O)C(=O)N[C@@H](CC(C)C)C(=O)N[C@@H](Cc1c[nH]cn1)C(=O)N[C@@H](CCC(=O)O)C(=O)N[C@@H](CC(C)C)C(=O)N[C@@H](C)C(=O)N[C@H](C(=O)N[C@@H](Cc1ccc(O)cc1)C(=O)N1CCC[C@H]1C(=O)N[C@@H](CCCNC(=N)N)C(=O)N[C@H](C(=O)N[C@@H](CCC(=O)O)C(=O)N[C@H](C(=O)NCC(=O)N[C@@H](CO)C(=O)NCC(=O)N[C@@H](C)C(=O)N1CCC[C@H]1C(N)=O)[C@@H](C)O)[C@@H](C)O)[C@@H](C)O
notes: mimylin derivative; des1 = residue 1 deleted; also called Ex. #81; 81
B6: [N-terminal(C20 diacid-gGlu), des1, 15e, 30S, 31G]mimylin (peptide)
peptide: {C20 diacid-γGlu}-ASELSTAALGRLS[dE]ELHELATLPRTETGSGSP-NH2
SMILES: CC(C)C[C@H](NC(=O)[C@H](C)NC(=O)[C@H](C)NC(=O)[C@@H](NC(=O)[C@H](CO)NC(=O)[C@H](CC(C)C)NC(=O)[C@H](CCC(=O)O)NC(=O)[C@H](CO)NC(=O)[C@H](C)NC(=O)CC[C@H](NC(=O)CCCCCCCCCCCCCCCCCCC(=O)O)C(=O)O)[C@@H](C)O)C(=O)NCC(=O)N[C@@H](CCCNC(=N)N)C(=O)N[C@@H](CC(C)C)C(=O)N[C@@H](CO)C(=O)N[C@H](CCC(=O)O)C(=O)N[C@@H](CCC(=O)O)C(=O)N[C@@H](CC(C)C)C(=O)N[C@@H](Cc1c[nH]cn1)C(=O)N[C@@H](CCC(=O)O)C(=O)N[C@@H](CC(C)C)C(=O)N[C@@H](C)C(=O)N[C@H](C(=O)N[C@@H](CC(C)C)C(=O)N1CCC[C@H]1C(=O)N[C@@H](CCCNC(=N)N)C(=O)N[C@H](C(=O)N[C@@H](CCC(=O)O)C(=O)N[C@H](C(=O)NCC(=O)N[C@@H](CO)C(=O)NCC(=O)N[C@@H](CO)C(=O)N1CCC[C@H]1C(N)=O)[C@@H](C)O)[C@@H](C)O)[C@@H](C)O
notes: mimylin derivative; des1 = residue 1 deleted; lower case e = D-form of Glu; also called Ex. #67; 67
B7: [N-terminal(C20 diacid-gGlu), des1, 9T, 21S, 23Y, 30S, 31G, 33Y]mimylin (peptide)
peptide: {C20 diacid-γGlu}-ASELSTATLGRLSAELHELSTYPRTETGSGSY-NH2
SMILES: CC(C)C[C@H](NC(=O)[C@H](CCCNC(=N)N)NC(=O)CNC(=O)[C@H](CC(C)C)NC(=O)[C@@H](NC(=O)[C@H](C)NC(=O)[C@@H](NC(=O)[C@H](CO)NC(=O)[C@H](CC(C)C)NC(=O)[C@H](CCC(=O)O)NC(=O)[C@H](CO)NC(=O)[C@H](C)NC(=O)CC[C@H](NC(=O)CCCCCCCCCCCCCCCCCCC(=O)O)C(=O)O)[C@@H](C)O)[C@@H](C)O)C(=O)N[C@@H](CO)C(=O)N[C@@H](C)C(=O)N[C@@H](CCC(=O)O)C(=O)N[C@@H](CC(C)C)C(=O)N[C@@H](Cc1c[nH]cn1)C(=O)N[C@@H](CCC(=O)O)C(=O)N[C@@H](CC(C)C)C(=O)N[C@@H](CO)C(=O)N[C@H](C(=O)N[C@@H](Cc1ccc(O)cc1)C(=O)N1CCC[C@H]1C(=O)N[C@@H](CCCNC(=N)N)C(=O)N[C@H](C(=O)N[C@@H](CCC(=O)O)C(=O)N[C@H](C(=O)NCC(=O)N[C@@H](CO)C(=O)NCC(=O)N[C@@H](CO)C(=O)N[C@@H](Cc1ccc(O)cc1)C(N)=O)[C@@H](C)O)[C@@H](C)O)[C@@H](C)O
notes: mimylin derivative; des1 = residue 1 deleted; also called Ex. #99; 99

In the first assay the target is T1, human calcitonin receptor. Briefly: SPA competition vs 125I-calcitonin, membranes with human CTR (Assay VII). The method, then: The binding assay was performed using scintillation proximity assay (SPA) beads (RPNQ0001) from PerkinElmer® and cell membranes prepared from a BHK tk'ts 13 cell line was stably transfected with the human calcitonin receptor and a CRE-responsive luciferase reporter gene. Membranes were prepared in the following way; the cells were rinsed with PBS and incubated with Versene for approximately 5 min before harvesting. The cells were flushed with PBS and the cell-suspension was centrifuged for 5 min at 1000 rpm.
(§1) EDTA (pH 7.4, buffer 2). The resulting pellet was resuspended in buffer 2 and protein concentration was tested (BCA protein Assay, Pierce). The homogenate was kept cold during the whole procedure. The membranes were kept at −80° C. until use. Assay was performed in a 384 well Optiplate (PerkinElmer®) in a total volume of 40 ul. Membranes were mixed with SPA beads. Final concentration of membranes 35 ng/μL final and Final concentration of SPA beads was 0.05 mg/well. Test-compounds were dissolved in DMSO and further diluted in assay buffer (50 mM Hepes, pH 7.4, 1 mM CaCl2, 5 mM MgCl2, 0.1% OA and 0.02% Tween20). […] Samples were analyzed on TopCounter™ (Packard). The IC₅₀ was calculated using (one site binding competition analysis) GraphPad Prism5 as a measure of receptor affinity.
B1: the IC50 is 0.085 nM.
B2: the IC50 amounted to 0.1 nM.
B3: the IC50 was determined as 0.097 nM.
Regarding B4, the IC50 amounted to 0.07 nM.
Consider B5, for which the IC50 was 0.102 nM.
The same measure, in the same setting: as for B6, the figure is 0.022 nM; as for B7, 0.154 nM.

In another assay the target is T2, human amylin receptor (amylin 3(a) …). The assay is described as follows: SPA competition vs 125I-rat amylin, membranes with human CTR + RAMP-3 (Assay V). As for the experimental part: as §1, with “The binding assay was performed using scintillation proximity assay (SPA) beads (RPNQ0001) from PerkinElmer and cell membranes from the Amylin 3(a)/CRE-luc cells (as described in Assay (II)) were used. Membranes were prepared in the following way; the cells were rinsed with PBS and incubated with Versene for approximately 5 min before harvesting. The cells were flushed with PBS and the cell-suspension was centrifuged for 5 min at 1000 rpm. […] The” for “EDTA (pH 7.4, buffer 2). The”, “use. The assay” for “use. Assay”, “Optiplate (PerkinElmer)” for “Optiplate (PerkinElmer®)”, “and” for “and Final concentration of”
For the molecule B1, the IC50 was 0.141 nM.
The same measure, in the same setting: as for B2, the figure is 0.171 nM.
As to B3, the IC50 was 0.565 nM.
As for B4, the IC50 worked out at 0.394 nM.
With B5, the IC50 worked out at 0.141 nM.
On the same count and under the same terms, as for B6, the figure is 0.029 nM; as for B7, 0.159 nM.
